Assay results published in article PMC5159607.

Substrate: Oc1ccc2c(c1)OC[C@@]1(O)c3ccc(O)cc3O[C@@H]21
Assay: HPLC prenyltransferase assay, recombinant yeast microsomes, Lineweaver-Burk
Assay type: biochemical, Glycine max
Conditions: 400 µM DMAPP, divalent cation required (Mg2+ preferred), 30 °C, 15 min

B1: G2DT (PT7; ΔTP-PT7) (Glycine max) (protein)
chain: YKKKTQIECNILRSQQSSLNHHYKRIEGGATYQDCDKKYVVKAIPEPTFDSEPCASNPENVVDSAKKILDVFYHFCYPYSMIAIILCAISSSLLAVEKPSDISSSFLIGVLQALVPHLFVAVFANVVNQVFDYEIDKINKPYLPLASGQLSFTTAVFIAASLLIMSFWLSLVIGSWPLIWNVVLTSSVWNVYSINVPLLRWKRHPLLATICTISVWAFILPITFFLHMQTFVLKRPIVFPRSLIFYVVFMIFYSLGMALSKDISDVKGDKAYGIDTLAIRLGQKWVFWICIILFEMAFGVALLAGATSSYLWIKIVTGLGHAILASILLYQAKSIYLSNKVSTISFYMLIWKLLYAAYFLMALIR
For B1, the Km was 183 µM.
